Results on three substances are retold here after patent US20120220489A1.

For test [1], the target named is Histone H3-BSA 2.7x peptide-protein conjugate (bovine). In words: RPA standard curves, mean of duplicate assays.
Test [2] has as its target Histone H3 recombinant protein, human, Upstate 14-494 (human) (UniProt P68431). In words: RPA standard curves, mean of duplicate assays.
Test [3] deals with pErk1/2-BSA 2.7x peptide-protein conjugate (human; bovine). The test can be described thus: RPA, 8 point dilution series of the peptide standard in buffer, assay 2.
Test [4] deals with ERK1 (p44) inactive (GST tagged), human, Invitrogen PV 3312 (human) (UniProt P27361). The test can be described thus: RPA standard curves, mean of duplicate assays.
For test [5], the target named is Erk1-BSA 2.7x peptide-protein conjugate (human; bovine). The test can be described thus: RPA standard curves, mean of duplicate assays.
Test [6] deals with pErk1/2-BSA 2.7x peptide-protein conjugate (human; bovine). The test can be described thus: RPA standard curves, mean of duplicate assays.
In test [7] the target is ERK1 (p44) inactive (GST tagged), human, Invitrogen PV 3312 (human) (UniProt P27361). The test can be described thus: RPA standard curves.
Test [8] deals with ERK1 (p44) active (GST tagged), human, Invitrogen PV 3311 (human) (UniProt P27361). In words: RPA standard curves.
The target of test [9] is ERK1 (p44), human, Cell Signaling Technology 7416 (human) (UniProt P27361). The test can be described thus: RPA standard curves.

Sequence of pErk1/2-BSA 2.7x peptide-protein conjugate (human; bovine) (P02769 25-607 limits assumed): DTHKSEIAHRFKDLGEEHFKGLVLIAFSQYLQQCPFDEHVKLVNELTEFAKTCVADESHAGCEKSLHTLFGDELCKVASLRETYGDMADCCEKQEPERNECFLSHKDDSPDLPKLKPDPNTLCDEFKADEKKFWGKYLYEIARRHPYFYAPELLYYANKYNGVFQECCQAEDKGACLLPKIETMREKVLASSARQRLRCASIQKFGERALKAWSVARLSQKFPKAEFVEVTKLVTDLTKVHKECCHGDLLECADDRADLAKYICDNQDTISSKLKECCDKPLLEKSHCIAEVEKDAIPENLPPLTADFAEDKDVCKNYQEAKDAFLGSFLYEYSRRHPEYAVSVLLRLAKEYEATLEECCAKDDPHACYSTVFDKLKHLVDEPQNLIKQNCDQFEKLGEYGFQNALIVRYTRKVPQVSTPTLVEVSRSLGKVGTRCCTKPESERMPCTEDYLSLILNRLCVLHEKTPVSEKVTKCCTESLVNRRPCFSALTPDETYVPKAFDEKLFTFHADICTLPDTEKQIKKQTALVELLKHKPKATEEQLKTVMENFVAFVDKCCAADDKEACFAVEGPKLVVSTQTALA
Sequence of Histone H3-BSA 2.7x peptide-protein conjugate (bovine) (P02769 25-607 limits assumed): as above
Sequence of Erk1-BSA 2.7x peptide-protein conjugate (human; bovine) (peptide, as listed by the source limits assumed, chain 1 of 2): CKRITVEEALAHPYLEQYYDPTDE
Sequence of Erk1-BSA 2.7x peptide-protein conjugate (human; bovine) (P02769 25-607 limits assumed, chain 2 of 2): as the sequence (P02769 25-607 limits assumed) above

Regarding Histone H3 antibody, Abcam ab1791, the mean LOD came to 0.123 nM in test [1] and 0.156 nM in test [2].
“p44/42 MAPK (Erk1/2) antibody, Biosource 44-654G” yielded a mean signal (standard curve) in [3] of 0.008 RFI. In addition, the mean LOD was determined as 0.072 nM in test [4] and 0.046 nM in test [5].
Take “p44/42 MAPK phospho (pERK1/2) Thr202/Tyr204 antibody, Cell Signaling Technology #9101”: in [6], the mean LOD was determined as 0.03 nM. Besides, the signal relative to pErk1 protein (Invitrogen) in [7] stood at 3%; in test [9] it was 11%. Moreover, the signal intensity relative to the pErk1/2-BSA peptide standard in test [8] was 25%.
